These are literature values, as cited in article PMC2855346.

Broadly, the Kd is the constant that tells how readily two partners part at equilibrium.

The target in the data set is CCR2 (Homo sapiens) (UniProt P41597).
Chain of UniProt P41597 (P41597 whole entry): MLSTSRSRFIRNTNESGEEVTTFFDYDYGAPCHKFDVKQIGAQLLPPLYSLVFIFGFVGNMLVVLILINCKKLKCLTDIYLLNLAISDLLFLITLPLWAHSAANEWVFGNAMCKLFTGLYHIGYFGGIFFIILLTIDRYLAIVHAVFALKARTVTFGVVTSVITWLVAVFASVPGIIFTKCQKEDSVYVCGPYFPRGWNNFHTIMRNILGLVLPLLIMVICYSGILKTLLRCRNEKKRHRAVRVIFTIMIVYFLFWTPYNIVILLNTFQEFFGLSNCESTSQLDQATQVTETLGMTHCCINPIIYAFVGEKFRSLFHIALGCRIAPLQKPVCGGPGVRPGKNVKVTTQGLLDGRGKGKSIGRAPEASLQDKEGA

For CCL2 (from UniProt P13500), the Kd was 2.5 nM.
